US20250027068
Numbering of substitutions follows the chain as printed.

Biological target: pooled human IgG (human IgG1, 2, 3 and 4)

B1: PRT-605 (protein)
chain: MQITSVWTKGVTPLTPEQFRYNNEDVIHAPYLAHQGWYDITKAFDGKDNLLCGAATAGNMLHWWFEQNKTEIEAYLSKYGDTQKIIFNNQELFDLKAAIDTKDSQTNSQLFNYFRDKAFPNLSARQLGVMPDLVLDMFINGYYLNVFKTQSTDVNRPYQDKDKRGGIFDAVFTRGDQTTLLTARHDLKNKGLNDISTIIKQELTEGRALALSHTYANVSISHVINLWGADFNAEGNLEAIYVTDSDANASIGMKKYFVGINAHGHVAISAKKIEGENIGAQVLGLFTLSSGKEIWQKLSLEHHHHHH
Enzyme Activity Endpoint Assay (purified): Fab′2: 617 ng/µL | Enzyme Activity Endpoint Assay (purified): Fc: 357 ng/µL | Enzyme Activity Endpoint Assay (purified): IgG: 100 ng/µL | Enzyme Activity Endpoint Assay (purified): scIgG: 157 ng/µL

B2: PRT-660 (protein)
chain: MQITSVWTKGVTPLTPEQFRYNNEDVIHAPYLAHQGWYDITKAFDGKDNLLCGAATAGNMLHWWFDQNKTEIEAYLSKHPEKQKIIFNNQELFDLRKAINTKDDQKESALFNYFRKKAFPNLSARQLGVMPDLVLDMFINGYYLNVFKTQSTDVNRPYQDKDKRGGIFDAVFTRGDQTTLLTARHDLKNKGLNDISTIIKQELTEGRALALSHTYANVSISHVINLWGADFNAEGNLEAIYVTDSDANASIGMKKYFVGINAHGHVAISAKKIEGENIGAQVLGLFTLSSGKDIWQKLSLEHHHHHH
Enzyme Activity Endpoint Assay (purified): Fab′2: 161 ng/µL | Enzyme Activity Endpoint Assay (purified): Fc: 320 ng/µL | Enzyme Activity Endpoint Assay (purified): IgG: 105 ng/µL | Enzyme Activity Endpoint Assay (purified): scIgG: 668 ng/µL

B3: PRT-663 (protein)
chain: MQITSVWTKGVTPPTPEQFRYNNEDVIHAPYLAHQGWYDITKTFDGKDNLLCGAATAGNMLHWWFDQNKTEIEAYLSKHPEKQKIIFNNQELFDLKEAINTKDSQTNSQLFNYFRDKAFPNLSARQLGVMPDLVLDMFINGYYLNVFKTQSTDVNRPYQDKDKRGGIFDAVFTRGDQTKLLTARHDLKNKGLNEISTLIKQELTEGKALALSHTYANVSISHVINLWGADFNAEGNLEAIYVTDSDANASIGMKKYFVGINASGHVAISAKKIEGENIGAQVLGLFTLSTGKDIWQKLSLEHHHHHH
Enzyme Activity Endpoint Assay (purified): Fab′2: 825 ng/µL | Enzyme Activity Endpoint Assay (purified): Fc: 456 ng/µL | Enzyme Activity Endpoint Assay (purified): IgG: 0 ng/µL | Enzyme Activity Endpoint Assay (purified): scIgG: 0 ng/µL

B4: PRT-690 (protein)
chain: MQITSVWTKGVTPPTPEQFRYNNEDVIHAPYLANQGWYDITKTFNGKDNLLCGAATAGNMLHWWFDQNKTEIEAYLSKYPEKQKIIFNNQELFDLRAAINTKDSQTNSQLFNYFRDKAFPNLSARQLGVMPDLVLDMFINGYYLNVFKTQSTDVNRPYQDKDKRGGIFDAVFNRGDQTTLLTARHDLKNKTLNDISTLIKQELSSGKALALSHTYANVSISHVINLWGADFNAEGNLEAIYVTDSDANSNIGMKKYKVGVNAHGKVAISAKKIEGENIGAQVLGLFTLSSGKDIWQKLSLEHHHHHH
Enzyme Activity Endpoint Assay (purified): Fab′2: 966 ng/µL | Enzyme Activity Endpoint Assay (purified): Fc: 482 ng/µL | Enzyme Activity Endpoint Assay (purified): IgG: 0 ng/µL | Enzyme Activity Endpoint Assay (purified): scIgG: 0 ng/µL

B5: PRT-641 (protein)
chain: MQITSVWTKGVTPLTPEQFRYNNEDVIHAPYLAHQGWYDITKTMNGKDDLLCGAATAGNMLHWWFDQNKTEIEAYLSKHPEKQKIIFNNQELFDLKAAIDTKDSQTNSQLFNYFRDKAFPNLSARQRGVMPDLVLDMFINGYYLNVFKTQSTDVNRPYQDKDKRGGIFDAVFTRGDQTTLLTARHDLKNKGLNDISTIIKQELTEGRALALSHTYANVSISHVINLWGADFNAEGNLEAIYVTDSDARENIGMKKYFVGINAHGHVAISAKKIEGENIGAQVLGLFTLSSGKDIWQKLSLEHHHHHH
Enzyme Activity Endpoint Assay (purified): Fab′2: 975 ng/µL | Enzyme Activity Endpoint Assay (purified): Fc: 336 ng/µL | Enzyme Activity Endpoint Assay (purified): IgG: 0 ng/µL | Enzyme Activity Endpoint Assay (purified): scIgG: 0 ng/µL

B6: PRT-694 (protein)
chain: MTITSVWTKGVTPPTPEDFRYNNEDVLHAPYVANQGWYDITKTFDGKDNLLCGAATAGNMLHWWFDQNKEEIERYLKKYPEKQKIIFNNQELFDVRAAINTKDSQTNSKLFNYFRDKAFPNLSARQLGVMPDLVLDMFINGYYLNLGKTQSTDVNRPYQDKDKRGGIFDAVFNRGDQTTLLTARHDLKNKGLNEISDLIKQELSSGKALALSHTYANVRINHVINLWGADFDAEGNLIAIYVTDSDANSNIGMKKYKVGVNANGKVAISAKKIEGDNIGAQVLGLFTLSTGQDIWQKLSLEHHHHHH
Enzyme Activity Endpoint Assay (purified): Fab′2: 541 ng/µL | Enzyme Activity Endpoint Assay (purified): Fc: 0 ng/µL | Enzyme Activity Endpoint Assay (purified): IgG: 1030 ng/µL | Enzyme Activity Endpoint Assay (purified): scIgG: 15 ng/µL

B7: PRT-619 (protein)
chain: MQITTVWTKGVTPLTPEQFRYNNEDVIHAPYLAHQGWYDITKAFDGKDNLLCGAATAGNMLHWWFDQNKTEIEAYLSKHPEKQKIIFNNQELFDLKAAIDTKDSQTNSQLFNYFRDKAFPNLSARQLGVMPDLVLDMFINGYYLNVFKTQSTDVNRPYQDKDKRGGIFDAVFTRGDQTTLLTARHDLKNGGLEDISTIIKQELKNGRALALSHTYANVSISHVINLWGADFNAEGNLSAIYVTDSDANASIGMKKYFVGINAHGHVAISAKKIEGENIGAQVLGLFTLSSGKDIWQKLSLEHHHHHH
Enzyme Activity Endpoint Assay (purified): Fab′2: 140 ng/µL | Enzyme Activity Endpoint Assay (purified): Fc: 283 ng/µL | Enzyme Activity Endpoint Assay (purified): IgG: 102 ng/µL | Enzyme Activity Endpoint Assay (purified): scIgG: 591 ng/µL

B8: PRT-610 (protein)
chain: B1 chain with E66D, Y79H, G80P, D81E, T82K, F257Y, K271Y, E293D
Enzyme Activity Endpoint Assay (purified): Fab′2: 688 ng/µL | Enzyme Activity Endpoint Assay (purified): Fc: 381 ng/µL | Enzyme Activity Endpoint Assay (purified): IgG: 0 ng/µL | Enzyme Activity Endpoint Assay (purified): scIgG: 0 ng/µL

B9: PRT-611 (protein)
chain: B1 chain with E66D, Y79H, G80P, D81E, T82K, H185Y, K188Y, E293D
Enzyme Activity Endpoint Assay (purified): Fab′2: 924 ng/µL | Enzyme Activity Endpoint Assay (purified): Fc: 490 ng/µL | Enzyme Activity Endpoint Assay (purified): IgG: 0 ng/µL | Enzyme Activity Endpoint Assay (purified): scIgG: 0 ng/µL

B10: PRT-603 (protein)
chain: B7 chain with E193N, K204Q, N205S, S238E
Enzyme Activity Endpoint Assay (purified): Fab′2: 965 ng/µL | Enzyme Activity Endpoint Assay (purified): Fc: 486 ng/µL | Enzyme Activity Endpoint Assay (purified): IgG: 0 ng/µL | Enzyme Activity Endpoint Assay (purified): scIgG: 0 ng/µL

B11: PRT-651 (protein)
chain: B1 chain with E66D, Y79H, G80P, D81E, T82K, P120G, F147G, D160T, K161R, E293D
Enzyme Activity Endpoint Assay (purified): Fab′2: 542 ng/µL | Enzyme Activity Endpoint Assay (purified): Fc: 367 ng/µL | Enzyme Activity Endpoint Assay (purified): IgG: 168 ng/µL | Enzyme Activity Endpoint Assay (purified): scIgG: 359 ng/µL

B12: PRT-568 (protein)
chain: MANQEIRYSEATPSHITSVWTKGVTPPTQFIQNEDVLHAPYIANQGWYDITKTFNGKDDLLCGAATAGNMLHWWFDQNKTQIENYLKKHPEKQKINFNGEQMFDVKEAIDTKDSQTDSALFSYFKDKAFPYLSTKHLGVFPDHVIDMFINGYRLSLTNHGPTPVKRQTKDPRGGIFDAVFTRGDQSKLLTARHDFKEKTLNEISQLIKQELTEGKALGLSHTYANVRINHVINLWGADFNAEGNLEAIYVTDSDSNASIGMKKYYVGVNAAGHVAISAKEIEGDNIGAQVLGLFTLSTGQDIWQQTNLEHHHHHH
Enzyme Activity Endpoint Assay (purified): Fab′2: 880 ng/µL | Enzyme Activity Endpoint Assay (purified): Fc: 402 ng/µL | Enzyme Activity Endpoint Assay (purified): IgG: 0 ng/µL | Enzyme Activity Endpoint Assay (purified): scIgG: 0 ng/µL

B13: PRT-564 (protein)
chain: B12 chain with A191S, H273K
Enzyme Activity Endpoint Assay (purified): Fab′2: 651 ng/µL | Enzyme Activity Endpoint Assay (purified): Fc: 351 ng/µL | Enzyme Activity Endpoint Assay (purified): IgG: 0 ng/µL | Enzyme Activity Endpoint Assay (purified): scIgG: 0 ng/µL

B14: PRT-684 (protein)
chain: MQITSVWTKGVTPLTPEQFTNNNEDVIHAPYLANQGWYDITKTFNGKDNLLCGAATAGNMLHWWFDQNKEEIEAYLKKHPEKQKIIFNNQELFDLKKAIDTKDSQTNSALFNYFRDKAFPNLSARQLGVMPDLVLDMFINGYYLNVFKTQSTDVNRPYQTKDKRGGIFDAVFTRGDQTTLLTARHDLKNKGLNEISDIIKQELTEGKALALSHTYANVSISHVINLWGADFNAEGNLIAIYVTDSDANASIGMKKYFVGVNSHGKVAISAKKIEGENIGAQVLGLFTLSSGQDIWQKLSLEHHHHHH
Enzyme Activity Endpoint Assay (purified): Fab′2: 1060 ng/µL | Enzyme Activity Endpoint Assay (purified): Fc: 542 ng/µL | Enzyme Activity Endpoint Assay (purified): IgG: 0 ng/µL | Enzyme Activity Endpoint Assay (purified): scIgG: 0 ng/µL

B15: PRT-697 (protein)
chain: MTITSVWTKGVIPPTPEDFRYNNEDVLHAPYVPNQGWYDITKTFDGGDNLLCGAATAGNMLHWWFDQNKEEIERYLKKYPEKQKIIFNNQELFDVRAAINTKDSQTNSKLFNYFRDKAFPNLSARQLGVMPDLVLDMFINGYYLNLGKTQSTDVNRPYQDRDKRGGIFDHVFGRGDQTTLLTARHDLKNGGLNEISDLIKQELQSGKALALSHTYANVRINHVINLWGADFDAEGNLIAIYVTDSDANSSIGMKKYYVGVNANGKVAISAKKIEGDNIGAQVLGLFTLSTGQEIWQKLSLEHHHHHH
Enzyme Activity Endpoint Assay (purified): Fab′2: 701 ng/µL | Enzyme Activity Endpoint Assay (purified): Fc: 430 ng/µL | Enzyme Activity Endpoint Assay (purified): IgG: 221 ng/µL | Enzyme Activity Endpoint Assay (purified): scIgG: 161 ng/µL
